Test results reported in article PMC6308133.

Target: yeast Nsp1p FG-fragment Nsp1p-12FF (residues 262-492; 1xFG, 11xFSFG) (yeast) (UniProt P14907)
Experiment: plasmonic nanopore sensing (shift of the extinction dip); cNsp1 grafted to the interior silicon nitride walls of smaller nanopores (upper diameter 80-90 nm, lower 50-60 nm); Kapβ1 added in increasing concentrations in PBS; equilibrium dip shift averaged over ~10 min; fit to a two component Langmuir isotherm

K1 (two component Langmuir isotherm, configuration 1): 341 nM
K2 (two component Langmuir isotherm, configuration 2): 3.8 µM
Substance: karyopherinβ1 (from UniProt Q14974 1-876) (natural protein)
